Experimental data reported in patent US20200207853A1 (PHANES THERAPEUTICS, published 2020).
Substitutions are numbered along the chain they refer to.

B1: H6L5 (antibody, V domains shown)
VH: QIQLVQSGAEVKKPGASVKVSCKASGYTFTAYYINWVRQAPGQRLEWIGWIYPGSGNTKYNEKFKGRVTLTVDTSASTAYIELSSLRSEDTAVYFCARRGPWYFDVWGQGTTVTVSS
VL: EIVMTQSPATLSLSPGERATLSCRASENVGTYVSWYQQKPGQAPNLLIYGASNRYTGIPARFSGSGSGTDFTLTISSLQPEDFAVYHCGQTYSYPLTFGQGTKLEIK
notes: also called humanized anti-CD47 mAb H6L5
B2: H6L7 (antibody, V domains shown)
VH: B1 VH
VL: B1 VL with R24K, A43S, A60D
notes: also called humanized anti-CD47 mAb H6L7
B3: H5L5 (antibody, V domains shown)
VH: B1 VH with F95Y
VL: B1 VL
notes: also called humanized anti-CD47 mAb H5L5
B4: H6L8 (antibody, V domains shown)
VH: B1 VH
VL: B1 VL with E1N, R24K, A43S, I58V, A60D, G68A, V85D
notes: also called humanized anti-CD47 mAb H6L8
B5: H8L10 (antibody, V domains shown)
VH: QVQLVQSGAEVKKPGASVKVSCKASGYTFTSYWMHWVRQAPGQGLEWIGNIDPSDSETHYAQKFQGRVTLTVDKSTSTVYMELSSLRSEDTAVYYCAGTDLAYWGQGTLVTVSS
VL: EIVMTQSPGTLSLSPGERATLSCHASQNINVWLSWYQQKPGQAPRLLIYKASNLHTGIPDRFSGSGSGTDFTLTISRLEPEDFAVYYCQQGQSYPFTFGQGTKVEIK
notes: Humanized from mouse 17C6A; also called humanized anti-CD47 mAb H8L10
B6: H2L3 (antibody, V domains shown)
VH: QVQLVQSGAEVKKPGASVKLSCKASGYTFTSYWMHWVRQAPGQGLEWMGNIDPSDSETHYNQKFKDRVTLTVDTSTSTAYMELSSLRSEDTAVYYCSRWGYYGKSAMDYWGQGTLVTVSS
VL: AVQLTQSPSFLSASVGQRITINCRASKSISKYLAWYQEKPGKANKLLIYSGSTLQSGIPSRFSGSGSGTDFTLTISSLQPEDFAMYYCQQHNEYPWTFGGGTKVEIK
notes: also called humanized anti-CD47 mAb H2L3
B7: H3L2 (antibody, V domains shown)
VH: B6 VH with M48I, V68A
VL: B6 VL with E38Q, I58V, D70E
notes: also called humanized anti-CD47 mAb H3L2
B8: H3L9 (antibody, V domains shown)
VH: B6 VH with M48I, V68A
VL: B6 VL with A1D, Q17D, I19V, N22T, E38Q, I58V, D70E
notes: also called humanized anti-CD47 mAb H3L9
B9: H2L4 (antibody, V domains shown)
VH: B6 VH
VL: B6 VL with L4I, R18T, Q79E
notes: also called humanized anti-CD47 mAb H2L4
B10: H1L2 (antibody, V domains shown)
VH: B6 VH with L20V, A79V
VL: B6 VL with E38Q, I58V, D70E
notes: Humanized from mouse 13B18A; also called humanized anti-CD47 mAb H1L2
B11: H1L3 (antibody, V domains shown)
VH: B6 VH with L20V, A79V
VL: B6 VL
notes: also called humanized anti-CD47 mAb H1L3
B12: H3L4 (antibody, V domains shown)
VH: B6 VH with M48I, V68A
VL: B6 VL with L4I, R18T, Q79E
notes: also called humanized anti-CD47 mAb H3L4
B13: H1L4 (antibody, V domains shown)
VH: B6 VH with L20V, A79V
VL: B6 VL with L4I, R18T, Q79E
notes: also called humanized anti-CD47 mAb H1L4
B14: H2L1 (antibody, V domains shown)
VH: B6 VH
VL: B6 VL with Q17D, I19V, N22T, E38Q, I58V, D70E
notes: also called humanized anti-CD47 mAb H2L1

Target: T1, Recombinant human CD47(ECD)-HIS (human, UniProt Q08722 19-139, limits assumed)
T1 construct: also called huCD47-HIS; not shown: HIS tag
Assay: competition ELISA: blocking of SIRPα binding to CD47(ECD)-HIS

T1 sequence (Q08722 19-139 limits assumed): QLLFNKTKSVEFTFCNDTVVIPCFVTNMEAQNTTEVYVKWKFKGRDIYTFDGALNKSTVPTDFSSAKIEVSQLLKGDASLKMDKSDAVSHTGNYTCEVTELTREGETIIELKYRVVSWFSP

Binder | IC50 [nM]
B1 | 9.67
B2 | 39.2
B3 | 15.1
B4 | 13.2
B5 | 1.05
B6 | 9.56
B7 | 7.88
B8 | 9.6
B9 | 6.52
B10 | 6.8
B11 | 7.43
B12 | 5.35
B13 | 8.09
B14 | 4.73
